Substrate in this data set: CCCCC/C=C\C/C=C\C/C=C\C/C=C\CCCC(=O)O
Briefly: purified protein. Particulars: heme cyclooxygenase channel.

This is an account of results in publication PMC8103790.

B1: wild-type human COX-2 (huCOX-2) (Homo sapiens) (protein)
chain: ANPCCSHPCQNRGVCMSVGFDQYKCDCTRTGFYGENCSTPEFLTRIKLFLKPTPNTVHYILTHFKGFWNVVNNIPFLRNAIMSYVLTSRSHLIDSPPTYNADYGYKSWEAFSNLSYYTRALPPVPDDCPTPLGVKGKKQLPDSNEIVEKLLLRRKFIPDPQGSNMMFAFFAQHFTHQFFKTDHKRGPAFTNGLGHGVDLNHIYGETLARQRKLRLFKDGKMKYQIIDGEMYPPTVKDTQAEMIYPPQVPEHLRFAVGQEVFGLVPGLMMYATIWLREHNRVCDVLKQEHPEWGDEQLFQTSRLILIGETIKIVIEDYVQHLSGYHFKLKFDPELLFNKQFQYQNRIAAEFNTLYHWHPLLPDTFQIHDQKYNYQQFIYNNSILLEHGITQFVESFTRQIAGRVAGGRNVPPAVQKVSQASIDQSRQMKYQSFNEYRKRFMLKPYESFEELTGEKEMSAELEALYGDIDAVELYPALLVEKPRPDAIFGETMVEVGAPFSLKGLMGNVICSPAYWKPSTFGGEVGFQIINTASIQSLICNNVKGCPFTSFSVPDPELIKTVTINASSSRSGLDDINPTVLLKERSTEL
With B1, the Michaelis constant (Km) (as a rule, the substrate concentration at which the rate is half of its maximum) came to 17.7 ± 1.9 µM.
